Data set [1] can be described thus: Plasma SPX levels (ELISA) after SPX injection. In kind it is in vivo, mice. The method, then: Circulating glucose (Glu) and triglyceride (Tg) levels were measured using commercial kits (Wiener Lab., Rosario, Argentina). Plasma SPX was measured using a commercial ELISA kit (SPX: Phoenix pharmaceutical EK-023-81).
Supplementary figure 1. SPX levels (ng/ml, EIA Phoe nix pharmaceutical) after intraperitoneal injec tion with SPX (29 µg/kg). or Vehicle in mic e Different time points we r e evaluated after ip. Injections (10, 20, 60, 180, 360 minutes).
Supplementary Figure 2. ucp1 (a), pgc1α (b) and cox8b (c) mRNA expression in B AT. In all case s, t wo -wa y A N O VA wa s performed for factor (S or C) and interaction (S x C) analysis and deta iled below the graph only when s ig n if ica nt .. When interaction is statist icall y s ig n if ica nt , group to gr oup comparison wa s performed by Bonferroni test. ++++ P<0.0001 vs. CTR and ***P<0.001 vs. CTR-C (n=4- 6 m ice per group). […]
(An ELISA detects its analyte on a solid surface through an enzyme-linked reagent.)

The nature of the next data set: Liver Tg content. The note with it: SPX 29 µg/kg/day ten days. Format: in vivo, mice. Here is the method:
Liver tissue (50 mg) was homogenized in a 5% solution of 500 µL Triton X-100 in PBS. The homogenate was incubated at 80–100 °C for 5 min and centrifuged at 10,000× g for 10 min. The Tg levels were measured in the supernatants using a commercial kit (Wiener Lab., Rosario, Argentina).

Data set [2] in a line: Daily caloric intake and body weight of SPX-treated mice at RT or cold. In kind it is in vivo. The note with it: for body weight change: C × S p < 0.05. Here is the method: Normal adult male C57BL/6 mice (four months of age) were kept in a temperature-controlled environment (20–22 °C and a fixed 12 h light/12 h dark cycle; lights on at 07:00 h) and fed ad libitum with Purina commercial rat/mouse chow (Ganave, Buenos Aires, Argentina, L0723/1). Mice were injected with SPX or PBS (29 µg/kg/day, Tocris, Bristol, UK) for ten days (the SPX and CTR groups, respectively). On the third day of the protocol, each group was subdivided into two other groups: one exposed to cold (4 °C, CTR-C and SPX-C, n = 12 mice for each group) and another one housed at RT (CTR and SPX, n = 15 mice for each group) (Figure 1). Food intake and body weight were measured every day. On the experimental day (day 10), the mice were euthanized under non-fasting conditions (08:00 to 09:00 h), and their trunk blood was collected; plasma samples were then frozen (–80 °C) until the metabolite measurement. Inguinal AT (IAT, subcutaneous depot), epididymal AT (EAT, visceral depot), and brown AT (BAT, subcutaneous depot) were aseptically dissected and weighed. These depots were kept at –80 °C for further procedures. Animals were euthanized according to protocols for animal use, in agreement with the NIH guidelines for the care and use of experimental animals. All experiments were approved by our Institutional Animal Care Committee (Approval code: 6NE-2023).

B1: Spexin (peptide, UniProt Q9BT56 27-116, looked up)
Spexin: APQRLLERRNWTPQAMLYLKGAQGRRFISDQSRRKDLSDRPLPERRSPNPQLLTIPEAATILLASLQKSPEDEEKNFDQTRFLEDSLLNW
modifications: Spexin
notes: novel adipokine, a peptide of 14 amino acids of the galanin family; purchased from Tocris
As to B1, the “plasma SPX levels at end of protocol” value in data set [1] (day 10 of SPX 29 µg/kg/day, RT or cold, ELISA, n = 6–7) is given as “did not differ between groups”. Besides, in data set [1] (mice, single ip. injection SPX 29 µg/kg, 1 h, plasma ELISA), the “plasma SPX levels 1 h after SPX injection vs. basal” value is listed as “two-fold higher than basal ones”. The “plasma SPX levels 3 h after SPX injection vs. basal” value in data set [1] (mice, single ip. injection SPX 29 µg/kg, 3 h, plasma ELISA) is on record as “back to basal levels”. In addition, in data set [1] (mice, single ip. injection SPX 29 µg/kg, plasma ELISA at 10, 20, 60, 180, 360 minutes), the “SPX half-life in plasma” value is recorded as “short”. The “liver Tg content, SPX-C vs. CTR-C” value in the data set “Liver Tg content” (cold (4 °C), C × S p < 0.001, p < 0.001 vs. CTR-C) is “CTR-C mice had higher Tg levels than CTR (p < 0.01) and SPX-C (p < 0.001) mice”. Further, the “liver Tg content, SPX-C vs. SPX” value in “Liver Tg content” (cold vs. RT) is recorded as “lower Tg levels than SPX mice”. The “correlation between initial body weight and body weight loss after SPX treatment” value in data set [2] (SPX and SPX-C mice, basal and cold-stimulated conditions, Pearson correlation, p < 0.01) was “significant positive correlation”. Further, the caloric intake entry in data set [2] (male C57BL/6 mice, SPX 29 µg/kg/day for ten days, RT or cold (4 °C) from day 3, vs. CTR, repeated measures ANOVA, n = 6–9) is reported as “no differences were observed due to the SPX treatment”. In addition, the body weight change result in data set [2] (male C57BL/6 mice, SPX 29 µg/kg/day for ten days, basal conditions (RT), SPX vs. CTR) is on record as “lost body weight vs. CTR ones”; in data set [2] (male C57BL/6 mice, SPX 29 µg/kg/day for ten days, cold (4 °C) from day 3, SPX-C vs. CTR-C) it was “lost less weight than their CTR-C counterparts”.

For the origin of these results see publication PMC10855774, “Role of Spexin in White Adipose Tissue Thermogenesis under Basal and Cold-Stimulated Conditions” (International Journal of Molecular Sciences, 2024).
